Three molecules from publication PMC4495402 (Genes & Development, 2015) can be followed below.

The assay deals with Xenopus histone H3/H4 tetramer (Xenopus, UniProt P84233 21-136; P62799 17-103). Nature of the assay: ITC.

B1: yeast ySpt2C(259–333) (domain or fragment)
chain: PGYDRDEIWAMFNRGKKRSEYDYDELEDDDMEANEMEILEEEEMARKMARLEDKREEAWLKKHEEEKRRRKKGIR
As for B1, the dH was -19.2 kcal/mol.
Turning to ALRYMESSWKEQQKEEAKSLRLGMQEDLEEMRREEEEMQRRRAKKLKRR (domain or fragment) [hSpt2C (637–685) composed of only αC2], the equilibrium dissociation constant (Kd) came out at 2.3 µM and the dH was -38.9 kcal/mol.
Consider EPQEEISKHIREIFGYDRKKYKDESDYALRYMESS (domain or fragment) [hSpt2C (610–644) composed of only αC1], for which the equilibrium dissociation constant (Kd) came out at 55.6 µM and the dH was -9.2 kcal/mol.
